Measurements reported in patent US12421321B2, “Methods for treating fibrodysplasia ossificans progressiva” (Ashibio, Inc., priority 2023, dated 2025).
Like-named read-outs stand apart in the source and are kept apart here.

Legend:
pro-MMP-9 [1] = target: T1, pro-MMP-9 (Homo sapiens, UniProt P14780, Q279R/R574P); settings: cited from earlier work
T1 construct: Human MMP-9 protein (without)

HT1080 cells = settings: cited from earlier work
[2] = in vivo; cited from earlier work
pro-MMP-9 [3] = target: T1, pro-MMP-9; settings: cited from earlier work; remark: listed apart in the source
pro-MMP-9 [4] = target: T1, pro-MMP-9; settings: read-out: IC50, activation of MMP-9 from human pro-MMP-9; cited from earlier work
MMP-9 [5] = target: T2, MMP-9 (Homo sapiens, UniProt P14780); settings: cited from earlier work
Target sequence in this assay (P14780 107-707 limits assumed): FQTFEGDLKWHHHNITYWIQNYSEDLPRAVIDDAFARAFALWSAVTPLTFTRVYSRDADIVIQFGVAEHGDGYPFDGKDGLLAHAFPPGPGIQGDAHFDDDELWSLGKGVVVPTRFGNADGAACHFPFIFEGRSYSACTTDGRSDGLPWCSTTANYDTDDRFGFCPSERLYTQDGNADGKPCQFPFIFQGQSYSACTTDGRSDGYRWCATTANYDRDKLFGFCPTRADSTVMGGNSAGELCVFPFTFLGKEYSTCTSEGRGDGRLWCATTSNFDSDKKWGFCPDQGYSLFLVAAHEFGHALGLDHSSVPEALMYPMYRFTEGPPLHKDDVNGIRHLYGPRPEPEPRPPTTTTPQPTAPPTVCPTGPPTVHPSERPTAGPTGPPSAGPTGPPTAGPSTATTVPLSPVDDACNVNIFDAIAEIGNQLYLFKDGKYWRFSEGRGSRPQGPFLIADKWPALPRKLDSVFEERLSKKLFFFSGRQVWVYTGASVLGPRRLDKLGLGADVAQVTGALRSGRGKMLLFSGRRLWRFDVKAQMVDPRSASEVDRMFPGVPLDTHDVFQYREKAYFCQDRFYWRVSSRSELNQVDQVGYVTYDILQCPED

[6] = Pooled safety analysis of double-blind placebo-controlled trials, subcutaneous andecaliximab monotherapy, non-oncologic conditions; assay type: in vivo, human; settings: for Participants with TEAE assessed as related to study drug: double-blind period
Experimental: A pooled analysis was conducted of all safety data from prior randomized, double-blind, placebo-controlled clinical trials where andecaliximab was administered subcutaneously as a monotherapy in non-oncologic conditions.
The pooled safety analysis consisted of 347 patients enrolled in double-blind (DB) placebo-controlled trials [age 18-78 yrs, median duration of treatment: DB=8 wk; DB+ open label extension (OLE)=17 wk; max 75 wk]. During the DB treatment period, treatment-emergent adverse event (TEAE) assessed as related to study drug occurred in 19 (17.8%) receiving 150 mg Q2W, 23 (20.2%) receiving 150 mg QW, 13 (22.4%) receiving 300 mg QW, none of those receiving 600 mg andecaliximab QW, and 20 participants (22.0%) received a placebo. Treatment-related TEAEs more common with andecaliximab compared with placebo (difference of >1 percentage point) were injection site erythema (2.1% versus 1.1%), headache (1.4% versus 0%), anemia (1.1% versus 0%), and injection site pain (1.1% versus 0%).

[7] = human, in vivo; cited from earlier work
MDA-MB-435 = MDA-MB-435 mouse models; cited from earlier work
MMP-9 [8] = target: T2, MMP-9; settings: read-out: Ki against MMP-9, cited from earlier work
Target sequence in this assay (P14780 94-707): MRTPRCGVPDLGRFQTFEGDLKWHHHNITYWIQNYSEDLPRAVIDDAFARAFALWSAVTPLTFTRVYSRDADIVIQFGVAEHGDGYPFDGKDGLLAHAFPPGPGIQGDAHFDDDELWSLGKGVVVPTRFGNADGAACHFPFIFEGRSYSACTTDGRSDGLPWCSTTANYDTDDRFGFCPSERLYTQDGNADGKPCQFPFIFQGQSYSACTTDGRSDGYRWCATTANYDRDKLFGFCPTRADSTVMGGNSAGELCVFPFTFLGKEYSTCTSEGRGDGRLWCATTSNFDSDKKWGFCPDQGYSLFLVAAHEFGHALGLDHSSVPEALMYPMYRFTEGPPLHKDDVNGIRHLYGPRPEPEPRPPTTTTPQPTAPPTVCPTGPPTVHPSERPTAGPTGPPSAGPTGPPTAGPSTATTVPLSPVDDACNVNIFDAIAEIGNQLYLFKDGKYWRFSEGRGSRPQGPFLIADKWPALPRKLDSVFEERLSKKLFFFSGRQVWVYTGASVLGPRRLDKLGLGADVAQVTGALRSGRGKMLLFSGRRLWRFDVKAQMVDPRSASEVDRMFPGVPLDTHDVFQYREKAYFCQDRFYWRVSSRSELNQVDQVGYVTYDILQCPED

[9] = system: mouse model of multiple sclerosis; settings: cited from earlier work
[10] = system: fibrodysplasia ossificans progressiva; settings: in vivo; cited from earlier work
heterotopic ossification = assay: Inducible FOP mouse model (Acvr1 R206H, tamoxifen plus cardiotoxin), HO volume by micro-CT; assay type: in vivo, mice; settings: 30 mg/kg loading, then 15 mg/kg IP; micro CT 14-24 days post-injury
Experimental: FIG. 1 is a plot showing heterotopic ossification (HO) in an inducible mouse model of FOP having the R206H mutation (Acvr1[R206H]FIEx/+, Gt(ROSA26)SorCreERT2/+) treated with a control vehicle or AB0046 antibody (murine surrogate of andecaliximab that recapitulates MMP-9 inhibitory activity). The induction of disease occurred via tamoxifen (75 mg/kg×7 days, IP) and cardiotoxin injection on day 0 (10 μM, 100 μL) in the right gastrocnemius muscle. Dosing occurred at 30 mg/kg three days prior to injury (loading dose to address initial target-mediated drug disposition), then 15 mg/kg on days 0 and 3, or 15 mg/kg continuing twice per week after day […]. Ex vivo quantification of HO at the injury site was assessed using high-resolution micro CT and analyzed using 3D morphometry.
As described in Hatsell et al (Science Translational Medicine 2015), a knock-in transgenic model (Acvr1[R206H]FIEx/+; Gt(ROSA26)SorCreERT2/+) is used for these studies. […]
Faxitron images (medio-lateral view) of the collected entire right and left hindlimbs from all animals were performed (ex vivo) to document the presence of ectopic bone. Images were assessed qualitatively.
The effect of the anti-MMP-9 antibody, AB0046, on bone formation in the mouse model was evaluated ex vivo at the end of the in-life period. […]

[11] = system: colorectal carcinoma xenograft; settings: surgical orthotopic xenograft model of colorectal carcinoma; cited from earlier work
[12] = pooled andecaliximab (placebo 0%)

T1 sequence (P14780 20-707 Q279R/R574P): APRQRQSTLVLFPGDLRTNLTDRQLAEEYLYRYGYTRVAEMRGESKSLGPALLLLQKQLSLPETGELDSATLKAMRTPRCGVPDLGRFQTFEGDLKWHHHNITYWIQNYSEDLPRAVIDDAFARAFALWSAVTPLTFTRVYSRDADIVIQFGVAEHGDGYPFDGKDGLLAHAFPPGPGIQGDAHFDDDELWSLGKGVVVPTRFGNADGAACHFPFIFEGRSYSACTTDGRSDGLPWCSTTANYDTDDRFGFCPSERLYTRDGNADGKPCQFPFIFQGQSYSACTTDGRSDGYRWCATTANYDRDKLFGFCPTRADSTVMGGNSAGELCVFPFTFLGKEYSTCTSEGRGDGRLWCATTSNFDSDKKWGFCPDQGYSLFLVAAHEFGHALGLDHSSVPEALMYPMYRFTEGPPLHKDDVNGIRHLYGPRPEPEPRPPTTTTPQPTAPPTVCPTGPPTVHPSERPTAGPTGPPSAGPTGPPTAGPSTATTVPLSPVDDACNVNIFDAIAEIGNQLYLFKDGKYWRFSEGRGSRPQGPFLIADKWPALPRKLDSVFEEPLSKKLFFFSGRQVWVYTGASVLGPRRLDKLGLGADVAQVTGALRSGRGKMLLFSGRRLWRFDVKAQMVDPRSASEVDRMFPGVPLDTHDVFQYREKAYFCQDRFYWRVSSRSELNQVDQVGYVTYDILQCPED

COc1ccccc1Nc1nc(-c2sc(NC(C)=O)nc2C)cs1 [JNJ0966, N-(2-((2-methoxyphenyl)amino)-4′-methyl-[4,5′-bithiazol]-2′yl) acetamide]
Activation of pro-MMP-9 (pro-MMP-9 [1]): prevents the activation of pro-MMP-9
Migration of HT1080 cells (HT1080 cells): inhibits the migration of HT1080 cells
Blood-brain barrier penetration [2]: penetrates the blood-brain barrier

andecaliximab: anti-MMP-9 recombinant chimeric, humanized antibody; heavy chain SEQ ID NO: 35, light chain SEQ ID NO: 36
Kd (pro-MMP-9 [3]): 0.008 to 0.043 nM
IC50 (pro-MMP-9 [4]): 0.0082 nM
Kd (MMP-9 [5]): 2 to 6.6 nM
Participants with TEAE assessed as related to study drug ([6]; 150 mg Q2W): 17.8%
Participants with TEAE assessed as related to study drug ([6]; 150 mg QW): 20.2%
Participants with TEAE assessed as related to study drug ([6]; 300 mg QW): 22.4%
Participants with TEAE assessed as related to study drug ([6]; 600 mg QW): none
Treatment-related TEAE: anemia [6, 12]: 1.1%
Treatment-related TEAE: headache [6, 12]: 1.4%
Treatment-related TEAE: injection site pain [6, 12]: 1.1%
Treatment-related TEAE: injection site erythema ([6]; pooled andecaliximab (placebo 1.1%)): 2.1%
Safety and tolerability in clinical trials [7]: safe and well-tolerated

CCCc1cc(=O)nc(SCC(=O)Nc2ccc(OC(F)F)cc2)[nH]1 [N-[4-(difluoromethoxy)phenyl]-2-[(4-oxo-6-propyl-1H-pyrimidin-2-yl)sulfanyl]-acetamide]
Tumor growth and metastasis (MDA-MB-435): reduced tumor growth and metastasis

α1(V)GlyΨ{PO2H—CH2} Val [mep14, 32,Flp15, 33] THPI
Ki (MMP-9 [8]; 25° Celsius): 90.6 nM
Ki (MMP-9 [8]; 37° Celsius): 0.98 nM
Clinical severity and weight loss [9]: effectively reduced clinical severity and weight loss

CC1(C)CCC(C)(C)c2cc(Cn3cccn3)c(/C=C/c3ccc(C(=O)O)cc3)cc21 [Palovarotene, palovarotene]
Effect in mouse model of fibrodysplasia ossificans progressiva [10]: shown promise

B1: AB0046: murine surrogate of andecaliximab that recapitulates MMP-9 inhibitory activity; SEQ ID NO: 33 and 32 (antibody)
heavy: MGWSSIILFLVATATGVHSQVQLQQPGSVLVRPGASVKLSCTASGYTFTSYWMNWVKQRPGQGLEWIGEIYPISGRTNYNEKFKVKATLTVDTSSSTAYMDLNSLTSEDSAVYYCARSRANWDDYWGQGTTLTVSSAKTTPPSVYPLAPGSAAQTNSMVTLGCLVKGYFPEPVTVTWNSGSLSSGVHTFPAVLQSDLYTLSSSVTVPSSTWPSETVTCNVAHPASSTKVDKKIVPRDCGCKPCICTVPEVSSVFIFPPKPKDVLTITLTPKVTCVVVDISKDDPEVQFSWFVDDVEVHTAQTQPREEQFNSTFRSVSELPIMHQDWLNGKEFKCRVNSAAFPAPIEKTISKTKGRPKAPQVYTIPPPKEQMAKDKVSLTCMITDFFPEDITVEWQWNGQPAENYKNTQPIMDTDGSYFVYSKLNVQKSNWEAGNTFTCSVLHEGLHNHHTEKSLSHSPGK
light: MSSAQFLGLLLLCFQGTRCDIQMTQTTSSLSASLGDRVTISCSASQGISNYLNWYQQKPDGTFKLLIYYTSILHSGVPSRFSGSGSGTDYSLTISNLEPEDIATYYCQQYGWLPRTFGGGTKLEIKRADAAPTVSIFPPSSEQLTSGGASVVCFLNNFYPKDINVKWKIDGSERQNGVLNSWTDQDSKDSTYSMSSTLTLTKDEYERHNSYTCEATHKTSTSPIVKSFNRNEC
Heterotopic ossification (HO) at the injury site versus IgG control (heterotopic ossification): reduced HO in mice
Tumor growth and metastasis [11]: reduced tumor growth and metastasis
